Reference: PMC4321536, “Chloroplast-encoded serotonin N-acetyltransferase in the red alga Pyropia yezoensis: gene transition to the nucleus from chloroplasts” (Journal of Experimental Botany, 2014)

Substrate: NCCc1c[nH]c2ccc(O)cc12
Assay: HPLC-fluorescence detection of N-acetylserotonin; Lineweaver-Burk plot
Type: biochemical, Pyropia yezoensis
Details: acetyl-CoA co-substrate (0.5 mM in standard assay), 100 mM potassium phosphate pH 8.8, 55 °C

B1: PySNAT (Pyropia yezoensis; I2V) (protein)
chain: MVFWKNFFQNSNINASSEKNFKKLIVLDKTCDKIEFKDIYLSSNKNINLYELEQLCDSVGWVKRPLKKVKIALKNSSIIISLIQKKDANSKLVGFARATSDNGFNATIWDVVIHPDFQGLGLGKVVIHQLIQQLRQAEISTITLFAEPDVVSFYKKLGFIKDPDGVKGMFWYPR
notes: full-length chloroplast-encoded protein, 174 aa, calculated 20099 Da, C-terminal His tag kept (pET28b NcoI/XhoI), E. coli BL21(DE3), Ni-NTA; no transit peptide; I2V read from the printed NcoI forward primer (ATG GTC for native ATG ATC)
  Km: 467 µM
